Assay results: article PMC1175818, “A Conserved Mechanism for Sulfonucleotide Reduction” (PLoS Biology, 2005)

Assays:
[1] = target: E. coli PAPS reductase (E. coli); assay: SEC; Superdex 200 gel filtration; 50 mM Tris-HCl (pH 8.0), 10% glycerol, 5 mM DTT, ionic strength adjusted to 150 mM with NaCl; column calibrated with protein standards; no change in retention volume when DTT was omitted
[2] = target: the molecule itself; assay: as above

E. coli PAPS reductase (enzyme)
stoichiometry N [1]: 2

B1: P. aeruginosa APS reductase (enzyme, UniProt O05927 1-267, looked up)
chain: MLPFATIPATERNSAAQHQDPSPMSQPFDLPALASSLADKSPQDILKAAFEHFGDELWISFSGAEDVVLVDMAWKLNRNVKVFSLDTGRLHPETYRFIDQVREHYGIAIDVLSPDPRLLEPLVKEKGLFSFYRDGHGECCGIRKIEPLKRKLAGVRAWATGQRRDQSPGTRSQVAVLEIDGAFSTPEKPLYKFNPLSSMTSEEVWGYIRMLELPYNSLHERGYISIGCEPCTRPVLPNQHEREGRWWWEEATHKECGLHAGNLISKA
notes: APS reductase of P. aeruginosa, gene amplified from P. aeruginosa genomic DNA ATCC 47085D; Cloned into pET24b or pET14b; source: E. coli BL21(DE3), purified (HiTrap Chelating, Superdex 200 gel filtration)
stoichiometry N [2]: 4
